Results reported in patent publication US20220411514A1, “ANTI-GAL3 ANTIBODIES AND METHODS OF USE FOR INSULIN RESISTANCE” (TrueBinding, Inc., priority 2021, published 2022).

Assays:
Assay type in all cases: binding
Conditions in all cases: Example 14
[1] = target: T1, human Gal3 (Homo sapiens, UniProt P17931); assay: Affinity kinetics to human Gal3 (Carterra LSA)
T1 construct: 6xHis (linker-spaced) (C); purchased AcroBio (Acro Biosystems) GA3-H5129
Procedure: (§1) Kinetics experiments were performed on a Carterra LSA at 25° C.
(§2) Then, a dilution series of Gal3 (2, 4, 8, 16, 32, 64, and 128 nM) in HBSTE with 0.5 mg/mL BSA was injected to the whole array for 300 seconds to allow association followed by dissociation for 240 seconds. The kinetics constants were calculated by the software NextGenKIT.
(§3) The affinity of Gal3 binding to antibody was determined by acquiring real time Ligand:Analyte binding kinetics data and fitting the data with a 1:1 monovalent binding model. The kinetic evaluation procedure determines association and dissociation constants by fitting the experimental data to a 1:1 interaction model between analyte A and ligand B:
(§4) The affinity KD is the result of Kd divided by Ka.
(§5) The protocol disclosed in Example 9 was generally followed.

[2] = target: His-EK-cynoGal3; assay: Affinity kinetics to cynomolgus Gal3 (Biacore T200)
Procedure: In each cycle, duplicates were made by loading the same antibody to flow cells FC2 and FC4, and then analyte was flowed to all 4 flow cells. The detection was done pairwise, FC2-FC1 and FC4-FC3, to subtract non-specific binding of analyte to the surface. A cycle of 0 nM analyte was run prior to a dilution series of analyte. The 0 nM raw data were subtracted from each non-zero concentration data to minimize machine drifts. The data were analyzed by Biacore Evaluation software version 2.0. The binding affinities were characterized by fitting the kinetic sensograms to a monovalent binding model (1:1 binding).
as §3, §4, §5

[3] = target: T2, His-EK-ratGal3 (Rattus norvegicus, UniProt P08699); assay: Affinity kinetics to rat Gal3 (Biacore T200)
T2 sequence (P08699 1-262): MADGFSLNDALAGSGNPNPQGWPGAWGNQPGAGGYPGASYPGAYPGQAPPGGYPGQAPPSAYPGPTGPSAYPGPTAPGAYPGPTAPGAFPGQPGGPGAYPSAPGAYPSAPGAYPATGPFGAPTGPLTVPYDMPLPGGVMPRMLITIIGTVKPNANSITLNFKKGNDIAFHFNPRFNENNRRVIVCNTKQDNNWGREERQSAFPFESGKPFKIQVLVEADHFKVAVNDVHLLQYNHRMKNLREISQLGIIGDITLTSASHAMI
Procedure: In each sample cycle, duplicates of the same antibody in HBS-EP+ with 0.5 mg/mL BSA at 10 μg/mL were captured to FC2 and FC4 by flowing at 10.0 μL/min for 120 seconds, and then diluted His-EK-ratGal3 in HBS-EP+ with 0.5 mg/mL BSA was injected to all 4 flow cells at 30.0 μL/min for 180 seconds, followed by dissociation for 240 seconds. A dilution series of His-EK-ratGal3 started from 300 nM, and was 1:3 diluted for 6 points. FC1 and FC3 were used as reference flow cells, and their sensograms were subtracted from FC2 and FC4 respectively to reduce non-specific binding background. Also, an additional sample cycle at 0 nM analyte was run, and its sensogram was subtracted from those of non-zero nM cycles to address machine drifts and bulk shifts. The data were analyzed by Biacore Evaluation software version 2.0. The binding affinities were characterized by fitting the kinetic sensograms to a monovalent binding model (1:1 binding).
as §3, §4, §5

[4] = target: mouse Gal3 (Mus musculus, UniProt P16110); assay: Affinity kinetics to mouse Gal3 (Carterra LSA)
Sequence of mouse Gal3 (P16110 whole entry): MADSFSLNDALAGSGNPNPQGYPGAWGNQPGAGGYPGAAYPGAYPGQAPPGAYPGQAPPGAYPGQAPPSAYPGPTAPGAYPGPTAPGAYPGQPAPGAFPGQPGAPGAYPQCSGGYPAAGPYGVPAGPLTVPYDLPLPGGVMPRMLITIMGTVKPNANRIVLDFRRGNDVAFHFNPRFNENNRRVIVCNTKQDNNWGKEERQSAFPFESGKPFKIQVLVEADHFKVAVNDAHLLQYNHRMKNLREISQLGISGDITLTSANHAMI
Procedure: as §1, §2, §3, §4, §5

T1 sequence (P17931 whole entry): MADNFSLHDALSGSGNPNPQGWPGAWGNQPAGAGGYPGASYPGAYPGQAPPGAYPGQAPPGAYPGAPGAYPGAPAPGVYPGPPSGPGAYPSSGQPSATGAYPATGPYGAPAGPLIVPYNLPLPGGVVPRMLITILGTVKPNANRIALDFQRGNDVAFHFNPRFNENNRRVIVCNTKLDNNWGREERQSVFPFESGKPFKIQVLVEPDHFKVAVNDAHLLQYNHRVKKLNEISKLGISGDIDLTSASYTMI

Q: Which “average affinity to human Gal3” value [1] does the source give for “Synagis: negative control antibody, hIgG4 backbone [reference compound]” here?
A: The value was “did not bind”.

Q: And the “affinity to His-EK-cynoGal3” value [2]?
A: The value was “did not bind”.

Q: What about the “average affinity to His-EK-ratGal3” value [3] of the same substance?
A: The value was “did not bind”.

Q: And the “average affinity to mouse Gal3” value [4]?
A: Its value is “did not show any binding activity”.
